Experimental data reported in patent US20200292536A1.

How the values were obtained:
[1] = biological target: BCL2 peptide Ac-…-amide (amino acids 41-54 of human BCL2 with linkers) (human); test: imaging mass cytometry; peptide 2.50E-06 M in core; Ab 5 ug/ml
[2] = biological target: BCL2 peptide Ac-…-amide (amino acids 41-54 of human BCL2 with linkers) (human); test: imaging mass cytometry; peptide 2.50E-07 M in core; Ab 10 ug/ml
[3] = biological target: BCL2 peptide Ac-…-amide (amino acids 41-54 of human BCL2 with linkers) (human); test: imaging mass cytometry; peptide 2.50E-04 M in core; Ab 5 ug/ml
[4] = biological target: BCL2 peptide Ac-…-amide (amino acids 41-54 of human BCL2 with linkers) (human); test: imaging mass cytometry; peptide 2.50E-07 M in core; Ab 5 ug/ml
[5] = biological target: BCL2 peptide Ac-…-amide (amino acids 41-54 of human BCL2 with linkers) (human); test: imaging mass cytometry; peptide 2.50E-08 M in core (second core); Ab 5 ug/ml
[6] = biological target: Bovine serum albumin (BSA; Ultra Pure) (bovine) (UniProt P02769); test: imaging mass cytometry; no peptide (second background core); Ab 1 ug/ml
[7] = biological target: BCL2 peptide Ac-…-amide (amino acids 41-54 of human BCL2 with linkers) (human); test: imaging mass cytometry; peptide 2.50E-06 M in core (second core); Ab 10 ug/ml
[8] = biological target: BCL2 peptide Ac-…-amide (amino acids 41-54 of human BCL2 with linkers) (human); test: imaging mass cytometry; peptide 2.50E-07 M in core (second core); Ab 1 ug/ml
[9] = biological target: BCL2 peptide Ac-…-amide (amino acids 41-54 of human BCL2 with linkers) (human); test: imaging mass cytometry; peptide 2.50E-07 M in core; Ab 1 ug/ml
[10] = biological target: BCL2 peptide Ac-…-amide (amino acids 41-54 of human BCL2 with linkers) (human); test: imaging mass cytometry; peptide 2.50E-04 M in core (second core); Ab 5 ug/ml
[11] = biological target: BCL2 peptide Ac-…-amide (amino acids 41-54 of human BCL2 with linkers) (human); test: imaging mass cytometry; peptide 2.50E-05 M in core (second core); Ab 5 ug/ml
[12] = biological target: Bovine serum albumin (BSA; Ultra Pure) (bovine) (UniProt P02769); test: imaging mass cytometry; no peptide (background core); Ab 10 ug/ml

BCL2 peptide Ac-…-amide (amino acids 41-54 of human BCL2 with linkers) (human), sequence (peptide, as listed by the source): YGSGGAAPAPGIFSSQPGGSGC
UniProt P02769, sequence (P02769 25-607 limits assumed): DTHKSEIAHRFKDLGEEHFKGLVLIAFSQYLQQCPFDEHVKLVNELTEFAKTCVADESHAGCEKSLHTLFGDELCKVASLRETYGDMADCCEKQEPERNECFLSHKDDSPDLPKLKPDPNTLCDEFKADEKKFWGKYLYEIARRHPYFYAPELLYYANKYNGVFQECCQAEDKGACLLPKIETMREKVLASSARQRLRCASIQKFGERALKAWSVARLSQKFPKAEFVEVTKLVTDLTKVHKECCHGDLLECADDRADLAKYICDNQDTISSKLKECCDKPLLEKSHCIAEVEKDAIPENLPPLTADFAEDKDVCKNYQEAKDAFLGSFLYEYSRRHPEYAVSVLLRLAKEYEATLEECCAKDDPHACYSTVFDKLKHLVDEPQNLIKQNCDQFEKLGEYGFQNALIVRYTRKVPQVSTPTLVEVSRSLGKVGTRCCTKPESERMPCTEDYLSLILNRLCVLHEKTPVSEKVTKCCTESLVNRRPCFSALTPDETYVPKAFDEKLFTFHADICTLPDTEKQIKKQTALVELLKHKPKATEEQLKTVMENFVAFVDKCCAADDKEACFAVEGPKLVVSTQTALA

Integrated Ion counts (per 150 micron square ROI) [1]: 4290 ion counts | Integrated Ion counts (per 150 micron square ROI) [2]: 1550 ion counts | Integrated Ion counts (per 150 micron square ROI) [3]: 35300 ion counts | Integrated Ion counts (per 150 micron square ROI) [4]: 1370 ion counts | Integrated Ion counts (per 150 micron square ROI) [5]: 2070 ion counts | Integrated Ion counts (per 150 micron square ROI) [6]: 1310 ion counts | Integrated Ion counts (per 150 micron square ROI) [7]: 3910 ion counts | Integrated Ion counts (per 150 micron square ROI) [8]: 2380 ion counts | Integrated Ion counts (per 150 micron square ROI) [9]: 1580 ion counts | Integrated Ion counts (per 150 micron square ROI) [10]: 37400 ion counts | Integrated Ion counts (per 150 micron square ROI) [11]: 15100 ion counts | Integrated Ion counts (per 150 micron square ROI) [12]: 979 ion counts
Substance: Fluidigm EPR17509-^146Nd antibody
